This is an account of results in article PMC11514458.

In data set [1] the target is T1, BCDX2 complex (human, UniProt O15315;O43502;O75771;O43543 1-384;1-376;1-328;1-280).
T1 sequence 1: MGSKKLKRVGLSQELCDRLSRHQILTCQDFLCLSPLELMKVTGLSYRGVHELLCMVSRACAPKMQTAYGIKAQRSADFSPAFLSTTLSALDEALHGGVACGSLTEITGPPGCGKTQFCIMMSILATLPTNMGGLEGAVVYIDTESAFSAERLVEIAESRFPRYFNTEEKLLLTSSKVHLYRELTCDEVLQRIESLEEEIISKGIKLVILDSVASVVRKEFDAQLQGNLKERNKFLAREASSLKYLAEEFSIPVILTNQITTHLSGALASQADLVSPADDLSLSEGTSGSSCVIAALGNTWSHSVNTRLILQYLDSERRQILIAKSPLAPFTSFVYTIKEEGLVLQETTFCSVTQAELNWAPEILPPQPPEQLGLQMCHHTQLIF
T1 sequence 2: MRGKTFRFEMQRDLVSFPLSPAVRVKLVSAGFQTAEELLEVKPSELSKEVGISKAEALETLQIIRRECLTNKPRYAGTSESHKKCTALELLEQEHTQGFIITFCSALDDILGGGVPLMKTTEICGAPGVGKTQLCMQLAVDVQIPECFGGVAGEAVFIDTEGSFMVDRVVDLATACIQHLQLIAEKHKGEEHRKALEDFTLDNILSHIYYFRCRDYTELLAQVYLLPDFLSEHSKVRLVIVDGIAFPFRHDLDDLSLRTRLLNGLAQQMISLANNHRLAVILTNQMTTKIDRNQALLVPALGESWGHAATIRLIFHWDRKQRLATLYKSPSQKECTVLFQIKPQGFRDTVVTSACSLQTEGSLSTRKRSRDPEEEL
T1 sequence 3: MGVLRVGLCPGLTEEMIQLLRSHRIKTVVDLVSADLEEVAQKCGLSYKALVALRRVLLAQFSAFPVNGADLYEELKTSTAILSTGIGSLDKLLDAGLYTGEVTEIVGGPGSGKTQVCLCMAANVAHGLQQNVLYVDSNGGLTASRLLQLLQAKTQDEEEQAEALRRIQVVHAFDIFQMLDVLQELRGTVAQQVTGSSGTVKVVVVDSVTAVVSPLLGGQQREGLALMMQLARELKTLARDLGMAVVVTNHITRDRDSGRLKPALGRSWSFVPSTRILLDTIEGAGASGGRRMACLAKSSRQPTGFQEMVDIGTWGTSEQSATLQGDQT
T1 sequence 4: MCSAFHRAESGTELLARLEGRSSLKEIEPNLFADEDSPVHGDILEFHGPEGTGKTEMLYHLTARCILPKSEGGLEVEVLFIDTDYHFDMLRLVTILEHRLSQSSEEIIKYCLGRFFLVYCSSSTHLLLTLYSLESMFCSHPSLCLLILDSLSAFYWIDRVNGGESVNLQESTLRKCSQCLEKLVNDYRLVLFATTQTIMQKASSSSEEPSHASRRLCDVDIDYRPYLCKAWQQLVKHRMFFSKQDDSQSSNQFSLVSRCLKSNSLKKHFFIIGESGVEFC
Description: EMSA; stronger than miniBRCA2; EMSA: 20 mM Tris-HCl pH 7.5, 2 mM MgCl2, 2 mM ATP, 37 C, 20 nM DNA, glutaraldehyde fixation; stopped-flow: 25 mM Tris-HCl pH 7.5, 5 mM MgCl2, 50 mM KCl, 2 mM ATP, 0.5 mM EDTA, 10% glycerol, 37 C; BLI: 50 mM Tris-HCl pH 7.5, 2 mM ATP, 50 mM KCl, 5 mM MgCl2, 0.05% Tween 20, room temperature. The conditions noted are these: protein: recombinant; tags: Strep-tag and His-tag (XRCC2 N-terminal His); copies: 1;1;1;1; label: 5' FITC. (In EMSA bound probe runs differently from free probe, usually more slowly.)

The target in a further data set is T2, DX2 complex (human, UniProt O75771;O43543 1-328;1-280).
T2 sequence 1: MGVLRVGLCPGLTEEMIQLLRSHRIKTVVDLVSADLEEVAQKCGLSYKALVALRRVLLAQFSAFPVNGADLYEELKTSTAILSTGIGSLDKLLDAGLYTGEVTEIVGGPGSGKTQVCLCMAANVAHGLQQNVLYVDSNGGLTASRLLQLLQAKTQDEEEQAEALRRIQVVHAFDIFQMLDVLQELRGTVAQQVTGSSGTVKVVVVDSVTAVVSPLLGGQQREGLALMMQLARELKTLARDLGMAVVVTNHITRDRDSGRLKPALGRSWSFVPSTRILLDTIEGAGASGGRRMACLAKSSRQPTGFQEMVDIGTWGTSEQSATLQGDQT
T2 sequence 2: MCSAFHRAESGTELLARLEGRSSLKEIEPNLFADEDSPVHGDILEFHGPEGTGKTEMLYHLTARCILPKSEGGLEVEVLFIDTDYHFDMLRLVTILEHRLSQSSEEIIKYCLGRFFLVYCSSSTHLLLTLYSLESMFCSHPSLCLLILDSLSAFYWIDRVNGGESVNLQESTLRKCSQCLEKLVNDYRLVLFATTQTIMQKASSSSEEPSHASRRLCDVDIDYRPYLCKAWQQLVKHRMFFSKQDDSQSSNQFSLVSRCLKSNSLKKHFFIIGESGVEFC
Description: EMSA; EMSA: 20 mM Tris-HCl pH 7.5, 2 mM MgCl2, 2 mM ATP, 37 C, 20 nM DNA, glutaraldehyde fixation; stopped-flow: 25 mM Tris-HCl pH 7.5, 5 mM MgCl2, 50 mM KCl, 2 mM ATP, 0.5 mM EDTA, 10% glycerol, 37 C; BLI: 50 mM Tris-HCl pH 7.5, 2 mM ATP, 50 mM KCl, 5 mM MgCl2, 0.05% Tween 20, room temperature. To be noted: protein: recombinant; tags: His-tag; copies: 1;1; label: 3' FITC.

Another data set addresses T3, BC complex (human, UniProt O15315;O43502 1-384;1-376).
T3 sequence 1: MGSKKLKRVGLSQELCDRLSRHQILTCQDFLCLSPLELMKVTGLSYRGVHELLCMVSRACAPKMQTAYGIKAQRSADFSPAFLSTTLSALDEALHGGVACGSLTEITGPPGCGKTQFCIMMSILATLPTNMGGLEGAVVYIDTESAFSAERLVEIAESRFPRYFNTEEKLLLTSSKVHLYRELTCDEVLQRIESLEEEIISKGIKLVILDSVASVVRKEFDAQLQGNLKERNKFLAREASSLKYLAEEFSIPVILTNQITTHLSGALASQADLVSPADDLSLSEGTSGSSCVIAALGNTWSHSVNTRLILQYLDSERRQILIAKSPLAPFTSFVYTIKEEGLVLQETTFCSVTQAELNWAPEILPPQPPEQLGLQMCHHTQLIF
T3 sequence 2: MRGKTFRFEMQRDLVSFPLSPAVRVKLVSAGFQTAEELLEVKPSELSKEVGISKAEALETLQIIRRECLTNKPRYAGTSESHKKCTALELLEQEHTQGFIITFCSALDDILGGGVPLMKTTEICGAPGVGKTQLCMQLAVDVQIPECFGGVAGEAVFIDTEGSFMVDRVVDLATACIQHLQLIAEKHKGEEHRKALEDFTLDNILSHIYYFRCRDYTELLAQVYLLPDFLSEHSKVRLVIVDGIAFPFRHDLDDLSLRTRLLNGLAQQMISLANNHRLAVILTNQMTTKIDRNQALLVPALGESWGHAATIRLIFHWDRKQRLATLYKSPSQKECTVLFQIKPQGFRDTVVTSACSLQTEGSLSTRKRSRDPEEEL
Described as above. To be noted: protein: recombinant; tags: Strep-tag; copies: 1;1; label: 3' FITC.

In data set [2] the target is T1, BCDX2 complex. Put plainly: EMSA; ATP, Mg2+; EMSA: 20 mM Tris-HCl pH 7.5, 2 mM MgCl2, 2 mM ATP, 37 C, 20 nM DNA, glutaraldehyde fixation; stopped-flow: 25 mM Tris-HCl pH 7.5, 5 mM MgCl2, 50 mM KCl, 2 mM ATP, 0.5 mM EDTA, 10% glycerol, 37 C; BLI: 50 mM Tris-HCl pH 7.5, 2 mM ATP, 50 mM KCl, 5 mM MgCl2, 0.05% Tween 20, room temperature. To be noted: protein: recombinant; tags: Strep-tag and His-tag (XRCC2 N-terminal His); copies: 1;1;1;1; label: 3' FITC.

For data set [3], the target named is T1, BCDX2 complex. Put plainly: EMSA; stronger than ssDNA; EMSA: 20 mM Tris-HCl pH 7.5, 2 mM MgCl2, 2 mM ATP, 37 C, 20 nM DNA, glutaraldehyde fixation; stopped-flow: 25 mM Tris-HCl pH 7.5, 5 mM MgCl2, 50 mM KCl, 2 mM ATP, 0.5 mM EDTA, 10% glycerol, 37 C; BLI: 50 mM Tris-HCl pH 7.5, 2 mM ATP, 50 mM KCl, 5 mM MgCl2, 0.05% Tween 20, room temperature. To be noted: protein: recombinant, tags: Strep-tag and His-tag (XRCC2 N-terminal His), copies: 1;1;1;1.

B1: ssDNA 30mer (ssDNA)
DNA: GTACAAAGCTCTGGCATGATACTATGCGGC
Take B1: in the data set with BCDX2 complex [1], the binding result is “binds”.

B2: ssDNA 49mer (ssDNA)
DNA: AGCTACCATGCCTGCACGAATTAAGCAATTCGTAATCATGGTCATAGCT
For the molecule B2, the binding result is “no binding” with DX2 complex, “no binding” in the data set with BC complex and “binds” with BCDX2 complex [2].

B3: 3' flap (mixed)
DNA 1: AGCTACCATGCCTGCACGAATTAAGCAATTCGTAATCATGGTCATAGCT
DNA 2: AGCTATGACCATGATTACGAATTGCTTGGAATCCTGACGAACTGTAG
DNA 3: AATTCGTGCAGGCATGGTAGCT
For B3, the binding result with BCDX2 complex [3] (label: 5' FITC on strand 1, flap 1:2 1:3) is recorded as “binds”.

B4: Y-form (mixed)
DNA 1: AGCTACCATGCCTGCACGAATTAAGCAATTCGTAATCATGGTCATAGCT
DNA 2: AGCTATGACCATGATTACGAATTGCTTGGAATCCTGACGAACTGTAG
In the case of B4, in the data set with BCDX2 complex [3] (label: 3' FITC on strand 1, fork 1:2), the binding result is reported as “binds”.

B5: ssDNA 40mer (ssDNA)
DNA: CTAAGTTCGTCAGGATTCCAGCATTCTAACAGTCATAGCG
For the molecule B5, in the data set with BCDX2 complex [1], the binding result is “binds”.
